{"source": "patent US8987424B2", "about": "“CA6 antigen-specific cytotoxic conjugate and methods of using the same” (ImmunoGen, Inc., priority 2003, dated 2015)", "key": {"[1]": {"tested_on": "Caov-3 cells", "experiment": "Flow cytometry binding assay", "set-up": "species or system human", "experimental": "Flow cytometric analysis was used to localize the DS6 epitope, CA6, to the cell surface. Human cell lines were obtained from the American Type Culture Collection (ATCC) with the exception of OVCAR5 (Kearse et al., Int. J. Cancer 88(6):866-872 (2000)), OVCAR8 and IGROV1 cells (M. Seiden, Massachusetts General Hospital). All cells were grown in RPMI 1640 supplemented with 4 mM L-glutamine, 50 U/ml penicillin, 50 μg/ml streptomycin (Cambrex Bio Science, Rockland, Me.) and 10% v/v fetal bovine serum (Atlas Biologicals, Fort Collins, Colo.), referred hereafter as culture media. Cells were maintained in a 37° C., 5% CO2 humidified incubator.\nCells ([…]) were incubated, on ice for 3-4 h, with serially diluted concentrations of the DS6 antibody prepared in FACS buffer (2% goat serum, RPMI) into 96-well plates. […] After two washes, the cells were fixed with 1% formaldehyde and analyzed on a flow cytometer.\nThe muDS6 antibody (8 mg/ml) was modified using 8-fold molar excess of N-succinimidyl-4-(2-pyridyldithio) pentanoate (SPP) to introduce dithiopyridyl groups. […] The degree of modification was determined by measuring the absorbance of the antibody at 280 nm and the DTT released 2-mercaptopyridine (Spy) at 280 and 343 nm. […] The number of DM1 molecules linked per molecule of muDS6 was determined by measuring the absorbance at both 252 nm and 280 nm of the filtered material. […]"}, "[2]": {"tested_on": "OVCAR5 tumor xenografts", "experiment": "Subcutaneous OVCAR5 xenograft efficacy study", "type": "in vivo, SCID mice", "experimental": "OVCAR5 (FIG. 26A and FIG. 26B), TOV-21 G (FIG. 26C and FIG. 26D), HPAC (FIG. 26E and FIG. 26F), and HeLa (FIG. 26G and FIG. 26H) cells were inoculated on day 0, and immunoconjugate treatments were given on day 6 and 13. PBS control animals were euthanized once tumor volumes exceeded 1000 mm^3. The conjugate was given at a dose of 600 μg/kg DM1, corresponding to an antibody concentration 27.7 mg/kg. Tumor volume (FIG. 26A, FIG. 26C, FIG. 26E, and FIG. 26G) and body weight (FIG. 26B, FIG. 26D, FIG. 26F, and FIG. 26H) of the mice were monitored during the course of the study.\nmuDS6-DM 1 activity was further tested on a panel of subcutaneous xenograft models (see FIG. 26). […] OVCAR5 cells and TOV-21 G are ovarian tumor cell lines; HPAC is a pancreatic tumor cell line; HeLa is a cervical tumor cell line. OVCAR5 and TOV-21G cells have low surface CA6 expression; HeLa cells have an intermediate level of surface CA6 expression; HPAC cells have a high CA6 density of surface expression. TOV-21G and HPAC cells are maytansine sensitive; OVCAR5 and HeLa cells are 2-7-fold less maytansine sensitive.\nThe 4 cell-lines were grown in vitro, collected, and 1×10^7 cells in a 100 μL of serum free medium were injected under the right shoulder of each mouse (6 mice per model) and allowed to grow for 6 days to an average tumor volume of 57.6±6.7 and 90.2±13.4 mm^3 for the test and control groups respectively of OVCAR5, 147.1±29.6 and 176.2±18.9 mm^3 for the test and control groups respectively of HPAC, 194.3±37.2 and 201.7±71.7 mm^3 for the test and control groups respectively of HeLa, and 96.6±22.8 and 155.6±13.4 mm^3 for the test and control groups respectively of TOV-21G, at which time drug treatment was initiated. For each model three control mice were treated with two weekly doses of PBS and three test mice were treated with two weekly doses of conjugate (600 μg/kg DM1) intravenously. Toxic responses were monitored daily during the treatment and tumor volumes and body weights were monitored throughout the study. […] The HeLa model had about a 3 week lag period before beginning exponential growth. […] For the TOV-21 G, HPAC, and HeLa models the mice remain tumor-free at day 61. In the OVCAR5 model tumors recurred at about day 45 after tumor inoculation. Thus, muDS6-DM1 treatment in this model results in a tumor growth delay of approximately 34 days. The growth delay is significant as OVCAR5 cells are less maytansine-sensitive and have low CA6 epitope expression. In models where either the CA6 epitope density is higher or the model has greater maytansine sensitivity, the tumor regression is more robust. It is important to note that only 2 doses were administered. […] It is likely that cures could be achieved with additional or higher conjugate doses."}, "[3]": {"details": "600 μg/kg DM1, two weekly doses"}}}
{"molecule": "DS6-DM1: muDS6 antibody modified with SPP and conjugated to the maytansinoid DM1 (conjugate) VH: QAYLQQSGAELVRSGASVKMSCKASGYTFTSYNMHWVKQTPGQGLEWIGYIYPGNGATNYNQKFKGKATLTADPSSSTAYMQISSLTSEDSAVYFCARGDSVPFAYWGQGTLVTVSA VL: QIVLTQSPAIMSASPGEKVTITCSAHSSVSFMHWFQQKPGTSPKLWIYSTSSLASGVPARFGGSGSGTSYSLTISRMEAEDAATYYCQQRSSFPLTFGAGTKLELKR", "values": [{"measurement": "effect of conjugation on binding affinity", "setting": "[1]; Caov-3 cells, versus unmodified muDS6", "result": "only a slight loss of affinity"}, {"measurement": "body weight", "setting": "[2]; [3]", "result": "no weight loss was observed"}, {"measurement": "day of tumor recurrence after tumor inoculation", "setting": "[2]; [3]", "result": "~45", "unit": "days"}, {"measurement": "tumor growth delay", "setting": "[2]; [3]", "result": "approximately 34 days"}, {"measurement": "tumor regression", "setting": "[2]; 600 μg/kg DM1 i.v., two weekly doses", "result": "complete tumor regression in all mice"}]}
{"molecule": "DS6: murine anti-CA6 monoclonal antibody DS6 (ATCC deposit number PTA-4449) (antibody, V domains shown) VH: QAYLQQSGAELVRSGASVKMSCKASGYTFTSYNMHWVKQTPGQGLEWIGYIYPGNGATNYNQKFKGKATLTADPSSSTAYMQISSLTSEDSAVYFCARGDSVPFAYWGQGTLVTVSA VL: QIVLTQSPAIMSASPGEKVTITCSAHSSVSFMHWFQQKPGTSPKLWIYSTSSLASGVPARFGGSGSGTSYSLTISRMEAEDAATYYCQQRSSFPLTFGAGTKLELKR", "values": [{"measurement": "MMF (average maximum relative mean fluorescence)", "setting": "[1]; Caov-3", "result": 465.20}]}
